Here are results for 23 molecules from patent publication US20250352661A1 (MYTHIC THERAPEUTICS, published 2025).

T1: Human LRRC15 Protein, His Tag (Acro Biosystems) (human, UniProt Q8TF66 22-538, limits assumed)
T1 construct: Bought protein with His tag
T1 sequence (looked up): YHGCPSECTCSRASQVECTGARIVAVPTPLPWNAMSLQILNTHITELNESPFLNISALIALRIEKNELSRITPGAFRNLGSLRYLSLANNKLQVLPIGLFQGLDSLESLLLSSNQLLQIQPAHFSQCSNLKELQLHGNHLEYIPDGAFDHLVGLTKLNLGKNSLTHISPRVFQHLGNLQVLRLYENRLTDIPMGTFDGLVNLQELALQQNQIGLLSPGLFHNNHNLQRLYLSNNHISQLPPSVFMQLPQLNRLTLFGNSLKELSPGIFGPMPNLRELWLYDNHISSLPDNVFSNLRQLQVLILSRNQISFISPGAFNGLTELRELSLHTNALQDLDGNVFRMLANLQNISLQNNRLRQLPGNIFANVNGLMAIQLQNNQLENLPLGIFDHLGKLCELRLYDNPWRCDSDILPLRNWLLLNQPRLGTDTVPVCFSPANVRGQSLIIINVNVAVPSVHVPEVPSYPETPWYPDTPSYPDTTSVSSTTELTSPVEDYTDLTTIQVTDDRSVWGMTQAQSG

T2: Human LRRC15 Protein, His Tag (Acro Biosystems) (human, UniProt Q8TF66 22-538, limits assumed)
T2 sequence (looked up): T1 sequence (looked up)

T3: LRRC15 on the surface of LRRC15+ cells (SAOS-2, U87MG) (UniProt Q8TF66 22-581, limits assumed)
T3 sequence (looked up): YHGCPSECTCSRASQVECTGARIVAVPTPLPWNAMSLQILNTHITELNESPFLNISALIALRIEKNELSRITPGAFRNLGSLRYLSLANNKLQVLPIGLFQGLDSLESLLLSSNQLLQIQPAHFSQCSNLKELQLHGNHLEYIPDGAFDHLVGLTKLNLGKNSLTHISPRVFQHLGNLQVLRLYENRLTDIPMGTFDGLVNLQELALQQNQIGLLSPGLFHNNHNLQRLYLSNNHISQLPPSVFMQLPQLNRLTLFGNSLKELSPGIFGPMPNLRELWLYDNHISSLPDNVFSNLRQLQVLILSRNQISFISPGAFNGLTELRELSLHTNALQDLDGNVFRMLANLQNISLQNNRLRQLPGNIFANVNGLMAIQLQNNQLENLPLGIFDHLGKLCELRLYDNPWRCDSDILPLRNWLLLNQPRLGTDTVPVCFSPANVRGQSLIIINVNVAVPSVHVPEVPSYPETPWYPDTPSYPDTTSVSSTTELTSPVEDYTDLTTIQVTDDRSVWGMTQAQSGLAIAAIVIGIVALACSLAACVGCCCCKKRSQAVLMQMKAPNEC

B1: MYT6150 (antibody, V domains shown)
VH: QEQLEESGGDLVKPGASLTLTCTASGLDFRRTNYICWVRQAPGKGLEWIGCIYIADVVHYYASWAKGRFTFSKTSSTTVTLQMTSLTAADTATYFCARGADGGFVYGMDLWGPGTLVTVSS
VL: DVVMTQTPASVSEPVGGTVTIKCQASQSIGNYLSWYQQKPGQRPKRLIYSASTLPSGVPSRFKGAGSGTEFTLTISDLESADAATYYCQNNYWLAGYGAPFGGGTEVVVK
notes: rabbit 15G7 VL H99A; chimeric, human constant regions
B2: MYT6151 (antibody, V domains shown)
VH: B1 VH
VL: B1 VL with A99H, P100H
notes: rabbit 15G7 VL P100H; chimeric, human constant regions
B3: MYT6148 (antibody, V domains shown)
VH: B1 VH
VL: B1 VL with Y97H, A99H
notes: rabbit 15G7 VL Y97H; chimeric, human constant regions
B4: MYT6147 (antibody, V domains shown)
VH: B1 VH
VL: B1 VL with G96H, A99H
notes: rabbit 15G7 VL G96H; chimeric, human constant regions
B5: MYT6149 (antibody, V domains shown)
VH: B1 VH
VL: B1 VL with G98H, A99H
notes: rabbit 15G7 VL G98H; chimeric, human constant regions
B6: MYT5712 (antibody, V domains shown)
VH: B1 VH
VL: B1 VL with A99H
notes: chimeric antibody (rabbit variable domains, human constant regions); also called 15G7; chimeric 15G7 RabMAb
B7: MYT6086 (antibody, V domains shown)
VH: B1 VH with T32H
VL: B1 VL with A99H
notes: chimeric rabbit 15G7 variant (rabbit variable domains, human constant regions); also called 15G7 VH T32H
B8: MYT6087 (antibody, V domains shown)
VH: B1 VH with N33H
VL: B1 VL with A99H
notes: chimeric rabbit 15G7 variant (rabbit variable domains, human constant regions); also called 15G7 VH N33H
B9: MYT6094 (antibody, V domains shown)
VH: B1 VH with I54H
VL: B1 VL with A99H
notes: chimeric rabbit 15G7 variant (rabbit variable domains, human constant regions); also called 15G7 VH I54H
B10: MYT6088 (antibody, V domains shown)
VH: B1 VH with Y34H
VL: B1 VL with A99H
notes: chimeric rabbit 15G7 variant (rabbit variable domains, human constant regions); also called 15G7 VH Y34H
B11: MYT6098 (antibody, V domains shown)
VH: B1 VH with V58H
VL: B1 VL with A99H
notes: chimeric rabbit 15G7 variant (rabbit variable domains, human constant regions); also called 15G7 VH V58H
B12: MYT6095 (antibody, V domains shown)
VH: B1 VH with A55H
VL: B1 VL with A99H
notes: chimeric rabbit 15G7 variant (rabbit variable domains, human constant regions); also called 15G7 VH A55H
B13: MYT6092 (antibody, V domains shown)
VH: B1 VH with I52H
VL: B1 VL with A99H
notes: chimeric rabbit 15G7 variant (rabbit variable domains, human constant regions); also called 15G7 VH I52H
B14: MYT6099 (antibody, V domains shown)
VH: B1 VH with H59A
VL: B1 VL with A99H
notes: chimeric rabbit 15G7 variant (rabbit variable domains, human constant regions); also called 15G7 VH H59A
B15: MYT6093 (antibody, V domains shown)
VH: B1 VH with Y53H
VL: B1 VL with A99H
notes: chimeric rabbit 15G7 variant (rabbit variable domains, human constant regions); also called 15G7 VH Y53H
B16: MYT6096 (antibody, V domains shown)
VH: B1 VH with D56H
VL: B1 VL with A99H
notes: chimeric rabbit 15G7 variant (rabbit variable domains, human constant regions); also called 15G7 VH D56H
B17: MYT6097 (antibody, V domains shown)
VH: B1 VH with V57H
VL: B1 VL with A99H
notes: chimeric rabbit 15G7 variant (rabbit variable domains, human constant regions); also called 15G7 VH V57H
B18: MYT6085 (antibody, V domains shown)
VH: B1 VH with R31H
VL: B1 VL with A99H
notes: chimeric rabbit 15G7 variant (rabbit variable domains, human constant regions); also called 15G7 VH R31H
B19: MYT6089 (antibody, V domains shown)
VH: B1 VH with I35H
VL: B1 VL with A99H
notes: chimeric rabbit 15G7 variant (rabbit variable domains, human constant regions); also called 15G7 VH I35H
B20: MYT6084 (antibody, V domains shown)
VH: B1 VH with R30H
VL: B1 VL with A99H
notes: chimeric rabbit 15G7 variant (rabbit variable domains, human constant regions); also called 15G7 VH R30H
B21: MYT3315 (antibody, V domains shown)
VH: EVQLVESGGGLVQPGGSLRLSCAVSGFSLTSYGVHWVRQATGKGLEWLGVIWAGGSTNYNSALMSRLTISKENAKSSVYLQMNSLRAGDTAMYYCATHMITEDYYGMDYWGQGTTVTVSS
VL: DIVMTQSPDSLAVSLGERATINCKSSQSLLNSRTRKNYLAWYQQKPGQSPKLLIYWASTRHSGVPDRFSGSGSGTDFTLTISSLQAEDVAVYYCKQSYNLPTFGGGTKVEIK
B22: MYT8415 (antibody, V domains shown)
VH: EVQLVESGGGLVQPGGSLRLSCTASGLDFRRTNYICWVRQAPGKGLEWVGCIYIADVVHYYASWAKGRFTFSRDTSKNTVYLQMNSLRAEDTAVYYCARGADGGFVYGMDLWGQGTLVTVSS
VL: EIVMTQSPSTLSASVGDRVIITCQASQSIGNYLSWYQQKPGKAPKRLIYSASTLPSGVPSRFSGSGSGAEFTLTISSLQPDDFATYYCQNNHWLAGYGHPFGQGTKLTVL
B23: MYT9776 (antibody, V domains shown)
VH: EVQLVESGGGLVQPGGSLRLSCTASGFSFSGHYWICWVRQAPGKGLEWVGCIHGGSHDITYYASWAKGRFTISRDTSKNTVYLQKTSLRAEDTAVYYCASDTSYTAYGNFYFNLWGQGTLVTVSS
VL: EIVMTQSPSPLSASVGDRVIITCQSSQSVLNNNWLAWYQQKPGKAPKLLIYDASSLASGVPSRFSGSGSGAEFTLTISSLQPDDFATYYCQGEFSCGSADCNAFGQGTKLEIK

Positions count from the first letter of the chain named. In names and notes the source's numbering stands.

The first assay addresses T1, Human LRRC15 Protein, His Tag (Acro …). Briefly: BLI; dissociation pH 7.4 black, pH 5.4 grey [D00008 FIG. 1F]. An excerpt: (§1) For each individual plot, antigen binding proteins were captured on anti-human Fc biosensors and associated with LRRC15 at pH 7.4. Dissociation was at pH 7.4 (black) or pH 5.4 (grey). Major X-axis ticks=100 seconds, with left dashed vertical line=0 seconds. Major Y-axis ticks=0.5 nm and octet plots are shown MYT5712 and MYT6080-MYT6121.
(§2) Multiple LRRC15-binding monoclonal antibodies have been described in the literature and can be used as a template for engineering pH-dependent binding. We selected discovery RabMAb clone 15G7 (rabbit VH SEQ ID NO: 378, rabbit VL SEQ ID NO: 451; humanized VH SEQ ID NO: 382, humanized VL SEQ ID NO: 455) as a LRRC15-binding monoclonal antibody for pH-engineering via histidine scanning. […] To generate pH-dependent sequence variants, individual amino acid residues within the heavy chain CDRs were systematically substituted with a histidine (or alanine if H was already present in a given position; e.g., MYT6099), one at a time (rabbit, MYT6080-6121). Desirable mutations were transferred to a humanized framework (humanized, MYT 8387-8411). After allowing for four days of protein expression, cell culture supernatants were collected, quantified by SDS-PAGE analysis, and the pH dependence of the variant was evaluated using biolayer interferometry (BLI) on an Octet RED 96e instrument. Briefly, cell culture supernatants were diluted based on qualitative expression level of the variant determined by visual examination of SDS-PAGE gels, 5 μL of cell culture supernatant was diluted into 195 μL of 1×PBST, pH 7.4 for high expressors, 25 μL of cell culture supernatant was diluted into 175 μL of 1×PBST, pH 7.4 for medium expressors and 100 μL of cell culture supernatant was diluted into 100 μL of 1×PBST, pH 7.4 for low expressors for loading onto the sensor tips.
(In general: BLI is a label-free optical method that tracks binding on a fibre tip over time.)
On to B1, for which the binding result is listed as “binds”. Still for that read-out and setting: with B2 the entry was “binds”; with B3, “binds”; with B4, “binds”. Take B5: the binding result is “binds”.

Another assay concerns the target T2, Human LRRC15 Protein, His Tag (Acro …). The assay is described as follows: BLI; dissociation pH 7.4 black, pH 5.4 grey [1/2); D00006 FIG. 1E (1/2].
Text: as §1, §2
As to B6, the binding result was “binds”.

Consider B7, for which the binding result is recorded as “binds”.

Regarding B8, the binding result is “binds”. Still for that read-out and setting: with B9 the entry was “binds”; with B10, “binds”.

In the case of B11, the binding result is “binds”. The same measure, in the same setting: with B12 the entry was “binds”; with B13, “binds”. The same measure, in the same setting: the value for B14 was “binds”; that for B15 was “binds”.

Take B16: the binding result was “binds”. Same read-out and setting: the value for B17 was “binds”. Still for that read-out and setting: with B18 the entry was “binds”; with B19, “binds”; with B20, “binds”.

A further assay addresses T3, LRRC15 on the surface of LRRC15+ cells …. Briefly: cell-based or functional assay.
For B21, the “Internalization in U87MG cells (10 nM, 24 hours), FOB = fold over background (IgG control)” value was 2.57 fold over background (IgG control) and the “Internalization in U87MG cells (10 nM, 24 hours), FOS = fold over samrotamab” value turned out to be 1.83 fold over samrotamab.

In the case of B22, the “Internalization in U87MG cells (10 nM, 24 hours), FOB = fold over background (IgG control)” value was 2.53 fold over background (IgG control) and the “Internalization in U87MG cells (10 nM, 24 hours), FOS = fold over samrotamab” value came out at 1.79 fold over samrotamab. On the same counts, the results for B23 are 2.69 fold over background (IgG control) and 1.97 fold over samrotamab.
